In experiment [1] the target is recombinant human HIRA(661–1017) (human) (UniProt P54198). In words: AUC; sedimentation velocity, c(S) model in SEDFIT, 141,995×g; buffer with 300 mM NaCl, and also with 150 mM NaCl with consistent values.
For experiment [2] the target is unchanged. In words: AUC; sedimentation equilibrium of the HIRA(661–1017)–CABIN1 FL complex isolated from a size-exclusion peak, slightly lower rotor speeds; 4 °C, 20 mM Tris pH 8.0, 300 mM NaCl, 1 mM TCEP; SEDPHAT ABBB model (A the HIRA trimer, B a CABIN1 monomer), apparent constants.

Sequence of recombinant human HIRA(661–1017) (human) (P54198 661-1017): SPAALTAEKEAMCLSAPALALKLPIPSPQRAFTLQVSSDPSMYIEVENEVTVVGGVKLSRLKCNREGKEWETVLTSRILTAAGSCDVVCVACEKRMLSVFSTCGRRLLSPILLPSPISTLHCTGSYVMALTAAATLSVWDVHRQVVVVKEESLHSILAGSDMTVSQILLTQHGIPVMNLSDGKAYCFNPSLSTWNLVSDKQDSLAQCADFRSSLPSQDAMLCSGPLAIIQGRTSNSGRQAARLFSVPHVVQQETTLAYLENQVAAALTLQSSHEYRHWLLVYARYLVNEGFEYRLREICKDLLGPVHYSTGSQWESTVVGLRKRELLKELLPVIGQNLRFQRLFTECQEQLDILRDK
Sequence of CABIN1 full length (FL), recombinant, Q9Y6J0 1-2220 (natural protein) (Q9Y6J0 whole entry): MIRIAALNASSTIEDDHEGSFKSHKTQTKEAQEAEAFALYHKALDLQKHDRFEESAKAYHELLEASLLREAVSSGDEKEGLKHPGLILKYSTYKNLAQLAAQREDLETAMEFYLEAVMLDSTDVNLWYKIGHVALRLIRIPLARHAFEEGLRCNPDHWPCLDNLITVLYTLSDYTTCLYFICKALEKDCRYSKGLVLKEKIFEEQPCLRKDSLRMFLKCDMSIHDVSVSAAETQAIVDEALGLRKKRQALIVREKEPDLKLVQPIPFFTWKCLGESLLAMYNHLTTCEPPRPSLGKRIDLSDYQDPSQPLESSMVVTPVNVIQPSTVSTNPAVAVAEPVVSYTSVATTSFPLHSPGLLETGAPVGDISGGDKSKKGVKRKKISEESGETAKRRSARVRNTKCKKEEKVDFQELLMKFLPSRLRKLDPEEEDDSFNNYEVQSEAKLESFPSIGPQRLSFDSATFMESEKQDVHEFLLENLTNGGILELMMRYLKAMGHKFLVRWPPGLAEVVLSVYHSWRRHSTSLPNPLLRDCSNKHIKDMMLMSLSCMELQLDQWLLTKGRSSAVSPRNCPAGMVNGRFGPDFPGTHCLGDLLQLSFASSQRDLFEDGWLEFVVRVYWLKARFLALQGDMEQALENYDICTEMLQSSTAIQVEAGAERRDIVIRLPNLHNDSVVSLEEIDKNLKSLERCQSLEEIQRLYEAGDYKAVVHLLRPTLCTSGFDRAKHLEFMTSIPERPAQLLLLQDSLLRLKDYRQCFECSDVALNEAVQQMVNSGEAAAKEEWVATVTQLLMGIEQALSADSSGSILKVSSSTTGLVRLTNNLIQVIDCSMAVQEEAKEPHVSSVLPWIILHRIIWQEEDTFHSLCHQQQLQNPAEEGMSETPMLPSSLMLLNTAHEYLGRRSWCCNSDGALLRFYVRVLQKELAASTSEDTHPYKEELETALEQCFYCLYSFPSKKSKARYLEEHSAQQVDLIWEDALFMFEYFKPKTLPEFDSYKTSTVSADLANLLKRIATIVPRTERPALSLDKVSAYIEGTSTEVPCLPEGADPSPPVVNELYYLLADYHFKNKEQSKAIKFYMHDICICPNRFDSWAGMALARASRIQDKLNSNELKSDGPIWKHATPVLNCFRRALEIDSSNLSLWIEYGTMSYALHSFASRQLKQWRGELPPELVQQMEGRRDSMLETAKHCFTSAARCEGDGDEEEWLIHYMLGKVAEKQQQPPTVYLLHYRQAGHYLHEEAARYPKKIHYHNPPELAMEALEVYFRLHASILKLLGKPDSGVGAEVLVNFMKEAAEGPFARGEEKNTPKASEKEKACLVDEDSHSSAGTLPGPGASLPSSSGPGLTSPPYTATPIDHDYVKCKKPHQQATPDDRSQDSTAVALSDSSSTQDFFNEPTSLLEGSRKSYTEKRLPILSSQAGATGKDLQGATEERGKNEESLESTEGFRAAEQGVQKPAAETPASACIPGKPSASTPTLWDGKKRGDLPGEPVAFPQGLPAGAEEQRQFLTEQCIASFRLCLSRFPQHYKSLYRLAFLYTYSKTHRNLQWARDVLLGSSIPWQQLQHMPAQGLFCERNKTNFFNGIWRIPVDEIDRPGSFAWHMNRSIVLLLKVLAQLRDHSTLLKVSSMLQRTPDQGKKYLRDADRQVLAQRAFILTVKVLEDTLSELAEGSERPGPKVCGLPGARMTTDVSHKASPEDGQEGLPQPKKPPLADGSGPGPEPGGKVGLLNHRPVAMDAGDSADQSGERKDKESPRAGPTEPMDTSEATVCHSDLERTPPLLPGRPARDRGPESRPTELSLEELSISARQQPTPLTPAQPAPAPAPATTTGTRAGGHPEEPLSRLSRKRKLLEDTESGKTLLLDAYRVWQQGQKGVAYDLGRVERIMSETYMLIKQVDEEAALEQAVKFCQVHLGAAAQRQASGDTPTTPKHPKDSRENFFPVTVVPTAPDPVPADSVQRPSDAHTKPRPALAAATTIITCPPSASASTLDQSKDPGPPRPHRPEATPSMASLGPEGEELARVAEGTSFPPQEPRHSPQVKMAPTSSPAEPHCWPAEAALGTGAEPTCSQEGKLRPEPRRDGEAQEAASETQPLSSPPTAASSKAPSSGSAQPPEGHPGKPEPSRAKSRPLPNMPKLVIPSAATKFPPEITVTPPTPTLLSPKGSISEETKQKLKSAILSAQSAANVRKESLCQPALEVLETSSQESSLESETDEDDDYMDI

Regarding “CABIN1 full length (FL), recombinant, Q9Y6J0 1-2220 (natural protein)”, the stoichiometry N (CABIN1 per HIRA trimer) in experiment [1] turned out to be 2. In addition, in experiment [2], the Kd, third binding event was 10 µM; the apparent Kd, first two binding events is less than 0.001 µM; the stoichiometry N (CABIN1 per HIRA trimer) was 2.

These data come from article PMC6078998.
